Results reported in patent US20030236190A1 (published 2003).
Positions of bridges follow the written chain, without caps; N, C: chain ends. No end group written: not given here.

target: T1, Soluble IGF-1R (R&D Systems, Cat. # 391-GR/CF); recombinant human IGF-1R (human, UniProt P08069 31-935); experiment: phage ELISA, vs IR
T1 construct: extracellular domain; Eu3+-labelled in the TR-FRET assays; also called sIGF-1R; rhIGF-1R

Binder	IGF-1R/IR Comparison
GGTKAVAKVGTRDDPFYHKLSELLQGS [H6Hα-4-G8-IR]	3.6 ratio
SACQFDCHENFYDWFARQVSGGAAYG (not fully specified (bridges); cysteine pairing not given here) [H2CA-4-H8-IGFR]	9.4 ratio
GIISQSCPESFYDWFAGQVSDPWWCW [H2CA-4-G9-IGFR]	16 ratio
RFDPFYSYFVNLLGASA [NNRPγ-4-A7-IR]	4.9 ratio
SRVAATKEKRPSDDPFYHKLSELLQGS [B6Hα-3-F7-IR]	3.1 ratio
YRGMLVLGRSSDGAGKVAFERPARIGQTVFAVNFYDWFV [A6L-0-E6-IR]	17 ratio
VGRASGFPENFYDWFGRQLSLQSGEQ [H2CA-4-H6-IGFR]	14.6 ratio
SAAQLFFQESFYDWFLRQVAESSQPN [H2CA-4-F11-IGFR]	6.7 ratio
AETSVQVGWIRLQSVWPGEHWNTVDPFYHKLSELLRGSGA [B6L-4-D7-IR]	3.4 ratio
GRTMAVMAAGGPDDPFYHKLSELVQGG [B6Hα-2-D6-IR]	4.4 ratio
SRAKVEAEMPDSGDPFYHKLSELLASG [B6Hα-1-A3-IR]	3.3 ratio
GCAVVEEAERSRGDPFYHKLSELIQGC (disulfide 2-27 (inferred)) [B6Hα-3-E7-IR]	4.3 ratio
GCEVIVEEGDSADPFYHKLSELCQGS (disulfide 2-23 (inferred)) [B6Hα-2-D1-IR]	4.2 ratio
MMVVDGFYDALHQLVVAQSLG [20E2A-3-D10-IGFR]	3.9 ratio
TLRSPTFYDWLEMVLTHGQGG [20E22-1-A8-IGFR]	5 ratio
VGTVAGFYDAIAQLVARASRV [20E2A-3-C7-IGFR]	5.1 ratio
GCVVEWQKWHGASDPFYHKLSELGGCS (disulfide 2-26 (inferred)) [B6Hα-3-F10-IR]	4.6 ratio
VGYQGQGDENFYDWFIRQVSGRLGVQ [H2CA-4-F5-IGFR]	12.3 ratio
LSVALSFYDALGQLVAGEGRW [20E2A-3-A12-IGFR]	3.9 ratio

target: T2, Insulin receptor prepared according to Bass et al., 1996: soluble human insulin receptor-immunoglobulin heavy … (human, UniProt P06213 28-956); experiment: phage ELISA vs milk
T2 construct: extracellular domain; Eu3+-labelled in TR-FRET; also called IR; sIR-Fc; not shown: immunoglobulin heavy chain constant domains that replace the transmembrane and i

Binder	Ratio over Background
GGTKAVAKVGTRDDPFYHKLSELLQGS [H6Hα-4-G8-IR]	1.7 fold
SACQFDCHENFYDWFARQVSGGAAYG (not fully specified (bridges); cysteine pairing not given here) [H2CA-4-H8-IGFR]	1 fold
GIISQSCPESFYDWFAGQVSDPWWCW [H2CA-4-G9-IGFR]	0.6 fold
RFDPFYSYFVNLLGASA [NNRPγ-4-A7-IR]	1.3 fold
SRVAATKEKRPSDDPFYHKLSELLQGS [B6Hα-3-F7-IR]	1 fold
YRGMLVLGRSSDGAGKVAFERPARIGQTVFAVNFYDWFV [A6L-0-E6-IR]	1.8 fold
VGRASGFPENFYDWFGRQLSLQSGEQ [H2CA-4-H6-IGFR]	0.7 fold
SAAQLFFQESFYDWFLRQVAESSQPN [H2CA-4-F11-IGFR]	1 fold
AETSVQVGWIRLQSVWPGEHWNTVDPFYHKLSELLRGSGA [B6L-4-D7-IR]	1.4 fold
GRTMAVMAAGGPDDPFYHKLSELVQGG [B6Hα-2-D6-IR]	1 fold
SRAKVEAEMPDSGDPFYHKLSELLASG [B6Hα-1-A3-IR]	0.8 fold
GCAVVEEAERSRGDPFYHKLSELIQGC (disulfide 2-27 (inferred)) [B6Hα-3-E7-IR]	1.3 fold
GCEVIVEEGDSADPFYHKLSELCQGS (disulfide 2-23 (inferred)) [B6Hα-2-D1-IR]	1.3 fold
MMVVDGFYDALHQLVVAQSLG [20E2A-3-D10-IGFR]	1.8 fold
TLRSPTFYDWLEMVLTHGQGG [20E22-1-A8-IGFR]	0.9 fold
VGTVAGFYDAIAQLVARASRV [20E2A-3-C7-IGFR]	1.1 fold
GCVVEWQKWHGASDPFYHKLSELGGCS (disulfide 2-26 (inferred)) [B6Hα-3-F10-IR]	1.9 fold
VGYQGQGDENFYDWFIRQVSGRLGVQ [H2CA-4-F5-IGFR]	0.8 fold
LSVALSFYDALGQLVAGEGRW [20E2A-3-A12-IGFR]	1.1 fold

target: T1, Soluble IGF-1R (R&D Systems, Cat. # …); experiment: phage ELISA vs milk

Binder	Ratio over Background
GGTKAVAKVGTRDDPFYHKLSELLQGS [H6Hα-4-G8-IR]	6.1 fold
SACQFDCHENFYDWFARQVSGGAAYG (not fully specified (bridges); cysteine pairing not given here) [H2CA-4-H8-IGFR]	9.2 fold
GIISQSCPESFYDWFAGQVSDPWWCW [H2CA-4-G9-IGFR]	9.5 fold
RFDPFYSYFVNLLGASA [NNRPγ-4-A7-IR]	6.3 fold
SRVAATKEKRPSDDPFYHKLSELLQGS [B6Hα-3-F7-IR]	3.1 fold
YRGMLVLGRSSDGAGKVAFERPARIGQTVFAVNFYDWFV [A6L-0-E6-IR]	31 fold
VGRASGFPENFYDWFGRQLSLQSGEQ [H2CA-4-H6-IGFR]	10.5 fold
SAAQLFFQESFYDWFLRQVAESSQPN [H2CA-4-F11-IGFR]	6.8 fold
AETSVQVGWIRLQSVWPGEHWNTVDPFYHKLSELLRGSGA [B6L-4-D7-IR]	4.8 fold
GRTMAVMAAGGPDDPFYHKLSELVQGG [B6Hα-2-D6-IR]	4.4 fold
SRAKVEAEMPDSGDPFYHKLSELLASG [B6Hα-1-A3-IR]	2.6 fold
GCAVVEEAERSRGDPFYHKLSELIQGC (disulfide 2-27 (inferred)) [B6Hα-3-E7-IR]	5.6 fold
GCEVIVEEGDSADPFYHKLSELCQGS (disulfide 2-23 (inferred)) [B6Hα-2-D1-IR]	5.4 fold
MMVVDGFYDALHQLVVAQSLG [20E2A-3-D10-IGFR]	6.9 fold
TLRSPTFYDWLEMVLTHGQGG [20E22-1-A8-IGFR]	4.4 fold
VGTVAGFYDAIAQLVARASRV [20E2A-3-C7-IGFR]	5.4 fold
GCVVEWQKWHGASDPFYHKLSELGGCS (disulfide 2-26 (inferred)) [B6Hα-3-F10-IR]	8.8 fold
VGYQGQGDENFYDWFIRQVSGRLGVQ [H2CA-4-F5-IGFR]	9.7 fold
LSVALSFYDALGQLVAGEGRW [20E2A-3-A12-IGFR]	4.3 fold

target: T2, Insulin receptor prepared according to …; experiment: phage ELISA, vs IGF-1R

Binder	IR/IGF-1R Comparison
GGTKAVAKVGTRDDPFYHKLSELLQGS [H6Hα-4-G8-IR]	0.3 ratio
SACQFDCHENFYDWFARQVSGGAAYG (not fully specified (bridges); cysteine pairing not given here) [H2CA-4-H8-IGFR]	0.1 ratio
GIISQSCPESFYDWFAGQVSDPWWCW [H2CA-4-G9-IGFR]	0.1 ratio
RFDPFYSYFVNLLGASA [NNRPγ-4-A7-IR]	0.2 ratio
SRVAATKEKRPSDDPFYHKLSELLQGS [B6Hα-3-F7-IR]	0.3 ratio
YRGMLVLGRSSDGAGKVAFERPARIGQTVFAVNFYDWFV [A6L-0-E6-IR]	0.1 ratio
VGRASGFPENFYDWFGRQLSLQSGEQ [H2CA-4-H6-IGFR]	0.1 ratio
SAAQLFFQESFYDWFLRQVAESSQPN [H2CA-4-F11-IGFR]	0.1 ratio
AETSVQVGWIRLQSVWPGEHWNTVDPFYHKLSELLRGSGA [B6L-4-D7-IR]	0.3 ratio
GRTMAVMAAGGPDDPFYHKLSELVQGG [B6Hα-2-D6-IR]	0.2 ratio
SRAKVEAEMPDSGDPFYHKLSELLASG [B6Hα-1-A3-IR]	0.3 ratio
GCAVVEEAERSRGDPFYHKLSELIQGC (disulfide 2-27 (inferred)) [B6Hα-3-E7-IR]	0.2 ratio
GCEVIVEEGDSADPFYHKLSELCQGS (disulfide 2-23 (inferred)) [B6Hα-2-D1-IR]	0.2 ratio
MMVVDGFYDALHQLVVAQSLG [20E2A-3-D10-IGFR]	0.3 ratio
TLRSPTFYDWLEMVLTHGQGG [20E22-1-A8-IGFR]	0.2 ratio
VGTVAGFYDAIAQLVARASRV [20E2A-3-C7-IGFR]	0.2 ratio
GCVVEWQKWHGASDPFYHKLSELGGCS (disulfide 2-26 (inferred)) [B6Hα-3-F10-IR]	0.2 ratio
VGYQGQGDENFYDWFIRQVSGRLGVQ [H2CA-4-F5-IGFR]	0.1 ratio
LSVALSFYDALGQLVAGEGRW [20E2A-3-A12-IGFR]	0.3 ratio
